Test results from IntAct's records for PubMed 25543256.

B1: Diphthamide biosynthesis protein 3 (Saccharomyces cerevisiae), Q3E840 (parent)
chain: MSTYDEIEIEDMTFEPENQMFTYPCPCGDRFQIYLDDMFEGEKVAVCPSCSLMIDVVFDKEDLAEYYEEAGIHPPEPIAAAA
partner: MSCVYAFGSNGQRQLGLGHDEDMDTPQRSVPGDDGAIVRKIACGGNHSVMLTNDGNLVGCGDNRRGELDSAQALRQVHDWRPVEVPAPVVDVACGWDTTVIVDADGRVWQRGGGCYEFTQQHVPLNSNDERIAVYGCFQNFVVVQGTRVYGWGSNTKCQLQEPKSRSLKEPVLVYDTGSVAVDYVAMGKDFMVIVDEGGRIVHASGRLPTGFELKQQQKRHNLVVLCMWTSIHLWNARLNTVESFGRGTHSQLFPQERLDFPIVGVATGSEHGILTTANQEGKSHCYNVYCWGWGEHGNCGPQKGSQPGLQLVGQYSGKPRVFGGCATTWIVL
B2: Diphthamide biosynthesis protein 3 (Saccharomyces cerevisiae), Q3E840 (parent)
chain: B1 chain
partner: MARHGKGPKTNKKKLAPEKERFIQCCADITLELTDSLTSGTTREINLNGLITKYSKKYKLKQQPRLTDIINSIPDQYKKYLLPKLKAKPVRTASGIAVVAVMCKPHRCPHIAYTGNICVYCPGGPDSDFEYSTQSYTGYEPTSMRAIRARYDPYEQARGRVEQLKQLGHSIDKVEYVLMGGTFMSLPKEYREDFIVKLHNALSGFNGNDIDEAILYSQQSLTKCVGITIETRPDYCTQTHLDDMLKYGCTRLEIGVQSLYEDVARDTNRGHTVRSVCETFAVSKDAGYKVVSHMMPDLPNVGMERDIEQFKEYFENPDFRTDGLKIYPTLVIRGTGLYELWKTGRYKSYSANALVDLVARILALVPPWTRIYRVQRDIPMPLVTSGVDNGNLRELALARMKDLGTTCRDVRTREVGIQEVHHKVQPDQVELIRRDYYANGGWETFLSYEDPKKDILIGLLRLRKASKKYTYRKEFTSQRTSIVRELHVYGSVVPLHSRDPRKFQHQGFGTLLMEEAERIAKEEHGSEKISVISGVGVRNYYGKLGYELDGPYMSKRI
B3: Diphthamide biosynthesis protein 3 (Saccharomyces cerevisiae), Q3E840 (parent)
chain: B1 chain
partner: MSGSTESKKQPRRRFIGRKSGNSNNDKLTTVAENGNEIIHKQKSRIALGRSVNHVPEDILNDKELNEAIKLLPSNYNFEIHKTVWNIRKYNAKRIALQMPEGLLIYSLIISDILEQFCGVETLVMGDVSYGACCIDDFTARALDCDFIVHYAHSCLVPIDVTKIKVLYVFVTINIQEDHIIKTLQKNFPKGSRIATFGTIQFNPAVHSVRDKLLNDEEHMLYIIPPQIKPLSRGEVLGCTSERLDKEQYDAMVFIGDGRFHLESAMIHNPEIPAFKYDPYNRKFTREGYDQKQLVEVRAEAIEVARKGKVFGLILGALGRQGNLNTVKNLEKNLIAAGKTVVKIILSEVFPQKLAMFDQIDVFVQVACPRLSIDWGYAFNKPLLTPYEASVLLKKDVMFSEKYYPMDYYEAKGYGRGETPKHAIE
B4: Protein KTI13 (Saccharomyces cerevisiae), P31386 (parent)
chain: B1 partner
partner: B1 chain

Variants of: B1
Conditions: with ats1_yeast ATS1, P31386

effect of a mutation on the interaction	Variant
disrupting interaction strength	MSTYAEIEIEDMTFEPENQMFTYPCPCGDRFQIYLDDMFEGEKVAVCPSCSLMIDVVFDKEDLAEYYEEAGIHPPEPIAAAA [D5A]
decreasing interaction strength	MSTYDEIAIEDMTFEPENQMFTYPCPCGDRFQIYLDDMFEGEKVAVCPSCSLMIDVVFDKEDLAEYYEEAGIHPPEPIAAAA [E8A]
disrupting interaction strength	MSTADEIEIEDMTFEPENQMFTYPCPCGDRFQIYLDDMFEGEKVAVCPSCSLMIDVVFDKEDLAEYYEEAGIHPPEPIAAAA [Y4A]

Variants of: B1
Conditions: with ats1_yeast ATS1, P31386
Remark: another data set of the same source

effect of a mutation on the interaction	Variant
decreasing interaction strength	MSTYAEIEIEDMTFEPENQMFTYPCPCGDRFQIYLDDMFEGEKVAVCPSCSLMIDVVFDKEDLAEYYEEAGIHPPEPIAAAA [D5A]
decreasing interaction strength	MSTYDAIAIEDMTFEPENQMFTYPCPCGDRFQIYLDDMFEGEKVAVCPSCSLMIDVVFDKEDLAEYYEEAGIHPPEPIAAAA [E6A;E8A]

Variants of: B1
Conditions: with ats1_yeast ATS1, P31386
Remark: another data set of the same source

effect of a mutation on the interaction	Variant
decreasing interaction strength	MSTYDEAEAEDMTFEPENQMFTYPCPCGDRFQIYLDDMFEGEKVAVCPSCSLMIDVVFDKEDLAEYYEEAGIHPPEPIAAAA [I7A;I9A]
decreasing interaction strength	MSTAAEIEIEDMTFEPENQMFTYPCPCGDRFQIYLDDMFEGEKVAVCPSCSLMIDVVFDKEDLAEYYEEAGIHPPEPIAAAA [Y4A;D5A]
decreasing interaction strength	MSTADEIEIEDMTFEPENQMFTYPCPCGDRFQIYLDDMFEGEKVAVCPSCSLMIDVVFDKEDLAEYYEEAGIHPPEPIAAAA [Y4A]

Variants of: B2
Conditions: with elp3_yeast ELP3, Q02908

effect of a mutation on the interaction	Variant
disrupting interaction strength	MSTYDEIEIEDMTFEPENQMFTYPCPCGDRFQIYLDDMFEGEKVAVCPSSSLMIDVVFDKEDLAEYYEEAGIHPPEPIAAAA [C50S]

Variants of: B3
Conditions: with dph1_yeast DPH1, P40487

effect of a mutation on the interaction	Variant
disrupting interaction strength	MSTYDEIEIEDMTFEPENQMFTYPCPCGDRFQIYLDDMFEGEKVAVSPSCSLMIDVVFDKEDLAEYYEEAGIHPPEPIAAAA [C47S]
disrupting interaction strength	MSTYDEIEIEDMTFEPENQMFTYPCPSGDRFQIYLDDMFEGEKVAVCPSCSLMIDVVFDKEDLAEYYEEAGIHPPEPIAAAA [C27S]
disrupting interaction strength	MSTYDEIEIEDMTFEPENQMFTYPSPCGDRFQIYLDDMFEGEKVAVCPSCSLMIDVVFDKEDLAEYYEEAGIHPPEPIAAAA [C25S]
disrupting interaction strength	MSTYDEIEIEDMTFEPENQMFTYPCPCGDRFQIYLDDMFEGEKVAVCPSSSLMIDVVFDKEDLAEYYEEAGIHPPEPIAAAA [C50S]

Variants of: B4
Conditions: with dph3_yeast KTI11, Q3E840

effect of a mutation on the interaction	Variant
decreasing interaction strength	MSCVYAFGSNGQRQLGLGHDEDMDTPQRSVPGDDGAIVRKIACGGNHSVMLTNDGNLVGCGDNRRGELDSAQALRQVHDWRPVEVPAPVVDVACGWDTTVIVDADGRVWQRGGGCYEFTQQHVPLNSNDERIAVYGCFQNFVVVQGTRVYGWGSNTKCQLQEPKSRSLKEPVLVYDTGSVAVDYVAMGKDFMVIVDEGGRIVHASGRLPTGFELKQQQKRHNLVVLCMCTSIHLWNARLNTVESFGRGTHSQLFPQERLDFPIVGVATGSEHGILTTANQEGKSHCYNVYCWGWGEHGNCGPQKGSQPGLQLVGQYSGKPRVFGGCATTWIVL [W229C]

Variants of: B4
Conditions: with dph3_yeast KTI11, Q3E840
Remark: another data set of the same source

effect of a mutation on the interaction	Variant
disrupting interaction strength	MSCVYAFGSNGQRQLGLGHDEDMDTPQRSVPGDDGAIVRKIACGGNHSVMLTNDGNLVGCGDNRRGELDSAQALRQVHDWRPVEVPAPVVDVACGWDTTVIVDADGRVWQRGGGCYEFTQQHVPLNSNDERIAVYGCFQNFVVVQGTRVYGWGSNTKCQLQEPKSRSLKEPVLVYDTGSVAVDYVAMGKDFMVIVDEGGRIVHASGRLPTGFELKQQQKRHNLVVLCMCTSIHLWNARLNTVESFGRGTHSQLFPQERLDFPIVGVATGSEHGILTTANQEGKSHCYNVYCWGWGEHGNCGPQKGSQPGLQLVGQYSGKPRVFGGCATTWIVL [W229C]
disrupting interaction strength	MSCVYAFGSNGQRQLGLGHDEDMDTPQRSVPGDDGAIVRKIACGGNHSVMLTNDGNLVGCGDNRRGELDSAQALRQVHDWRPVEVPAPVVDVACGWDTTVIVDADGRVWQRGGGCYEFTQQHVPLNSNDERIAVYGCFQNFVVVQGTRVYGWGSNTKCQLQEPKSRSLKEPVLVYDTGSVAVDYVAMGKDFMVIVDEGGRIVHASGRLPTGFELKQQQKRHNLVVLCMATSIHLWNARLNTVESFGRGTHSQLFPQERLDFPIVGVATGSEHGILTTANQEGKSHCYNVYCWGWGEHGNCGPQKGSQPGLQLVGQYSGKPRVFGGCATTWIVL [W229A]
decreasing interaction strength	MSCVYAFGSNGQRQLGLGHDEDMDTPQRSVPGDDGAIVRKIACGGNHSVMLTNDGNLVGCGDNRRGELDSAQALRQVHDWRPVEVPAPVVDVACGWDTTVIVDADGRVWQRGGGCYEFTQQHVPLNSNDERIAVYGCFQNFVVVQGTRVYGWGSNTKCQLQEPKSRSLKEPVLVYDTGSVAVDYVAMGKDFMVIVDEGGRIVHASGRLPTGFELKQQQKRHNLVVLCMWTSIHLWNARLNTVESFGRGTHSQLFPQERLDFPIVGVATGSEHGILTTANQEGKSHCYNVYCWGAGEHGNCGPQKGSQPGLQLVGQYSGKPRVFGGCATTWIVL [W294A]

Variants of: B4
Conditions: with dph3_yeast KTI11, Q3E840
Remark: another data set of the same source

effect of a mutation on the interaction	Variant
decreasing interaction strength	MSCVYAFGSNGQRQLGLGHDEDMDTPQRSVPGDDGAIVRKIACGGNHSVMLTNDGNLVGCGDNRRGELDSAQALRQVHDWRPVEVPAPVVDVACGWDTTVIVDADGRVWQRGGGCYEFTQQHVPLNSNDERIAVYGCFQNFVVVQGTRVYGWGSNTKCQLQEPKSRSLKEPVLVYDTGSVAVDYVAMGKDFMVIVDEGGRIVHASGRLPTGFELKQQQKRHNLVVLCMATSIHLWNARLNTVESFGRGTHSQLFPQERLDFPIVGVATGSEHGILTTANQEGKSHCYNVYCWGWGEHGNCGPQKGSQPGLQLVGQYSGKPRVFGGCATTWIVL [W229A]
increasing interaction strength	MSCVYAFGSNGQRQLGLGHDEDMDTPQRSVPGDDGAIVRKIACGGNHSVMLTNDGNLVGCGDNRRGELDSAQALRQVHDWRPVEVPAPVVDVACGWDTTVIVDADGRVWQRGGGCYEFTQQHVPLNSNDERIAVYGCFQNFVVVQGTRVYGWGSNTKCQLQEPKSRSLKEPVLVYDTGSVAVDYVAMGKDFMVIVDEGGRIVHASGRLPTGFELKQQQKRHNLVVLCMWTSIHLWNARLNTVESFGRGTHSQLFPQERLDFPIVGVATGSEHGILTTANQEGKSHCYNVYCWGWGEAGNCGPQKGSQPGLQLVGQYSGKPRVFGGCATTWIVL [H297A]
increasing interaction strength	MSCVYAFGSNGQRQLGLGHDEDMDTPQRSVPGDDGAIVRKIACGGNHSVMLTNDGNLVGCGDNRRGELDSAQALRQVHDWRPVEVPAPVVDVACGWDTTVIVDADGRVWQRGGGCYEFTQQHVPLNSNDERIAVYGCFQNFVVVQGTRVYGWGSNTKCQLQEPKSRSLKEPVLVYDTGSVAVDYVAMGKDFMVIVDEGGRIVHASGRLPTGFELKQQQKRHNLVVLCMWTSIHLWNARLNTVESFGRGTHSQLFPQERLDFPIVGVATGSEHGILTTANQEGKSHCYNVYCWGWGAHGNCGPQKGSQPGLQLVGQYSGKPRVFGGCATTWIVL [E296A]
